Target: GAL-PPARγ: chimera protein of the DNA binding region (1-147 amino acids) of yeast Gal4 with the ligand binding region of human PPARγ2 fused to its C terminus, expressed in COS-1 cells (yeast; human) (UniProt P04386)
Assay: cell-based or functional assay

B1: full-length AOP2 with vector-derived V5 epitope and HIS6 tag at the C terminus, expressed from pcDNA-AOP2 in COS-1 cells (protein, not shown: small tags and cut ends)
chain: PGGLLLGDVAPNFEANTTVGRIRFHDFLGDSWGILFSHPRDFTPVCTTELGRAAKLAPEFAKRNVKLIALSIDSVEDHLAWSKDINAYNCEEPTEKLPFPIIDDRNRELAILLGMLDPAEKDEKGMPVTARVVFVFGPDKKLKLSILYPATTGRNFDEILRVVISLQLTAEKRVATPVDWKDGDSVMVLPTIPEEEAKKLFPKGVFTKELPSGKKYLRYTPQP
  promotion of the transcription induction ability of PPARγ in the presence of AOP2 (corrected luciferase activity, COS-1), GI-262570 at 1.0 µM and 10 µM: 3.5 fold
  promotion of the transcription induction ability of PPARγ in the presence of AOP2 (corrected luciferase activity, COS-1), GL-100085 at 1.0 to 10 µM: 4 to 6 fold
  promotion of the transcription induction ability of PPARγ in the presence of AOP2 (corrected luciferase activity, COS-1), GW7282 at 1.0 to 10 µM: 4 to 5 fold

From patent US20050084840A1, “Method for screening drug for improving insulin resistance” (priority 2002, published 2005)
